Source: patent publication US10052364B2, “Osteocalcin as a treatment for cognitive disorders” (THE TRUSTEES OF COLUMBIA UNIVERSITY IN THE CITY OF NEW YORK, priority 2013, dated 2018)

Experiments:
Type in all cases: in vivo, mouse
[1] = tested on: Osteocalcin-/- mice born from Osteocalcin-/- mothers; assay: Osteocalcin injections in pregnant Osteocalcin-/- mothers (E0.5-E18.5): offspring behavior and brain histology
Procedure: FIG. 7. Maternal osteocalcin determines spatial learning and memory in adult offspring. (A-F) DLT (A), EPMT (B), OFT (C), FST (D), TST (E), and MWMT (F) performed in 3-month-old Ocn^−/− mice born from Ocn^−/− mothers injected once a day with vehicle or osteocalcin (240 ng/day) during pregnancy compared to WT mice. (G) Surface of the lateral ventricle over brain area (%) of E18.5 hippocampi coronal sections of WT embryos originating from WT mothers and Ocn^−/− embryos originating from osteocalcin-injected Ocn^−/− mothers. (H) Number of apoptotic cells (stained by TUNEL assay) of E18.5 hippocampi coronal sections of WT embryos originating from WT mothers and Ocn^−/− embryos originating from Ocn^−/− mothers injected with osteocalcin (240 ng/day). (I) Cresyl violet, NeuN immunofluorescence, and dentate gyms area (% versus WT) of WT and Ocn^−/− embryos originating from osteocalcin-injected Ocn^−/− mothers. Scale bars=0.5 mm.
Osteocalcin^−/−, Gprc6a^−/−, Osteocalcin-mCherry, and Osteocalcin floxed mice have been previously described (Ducy et al., 1996, Nature 382:448-452; Oury et al., 2011, Cell 144:796-809). Mouse genotypes were determined by PCR. For all experiments, controls were littermate female WT, Cre-expressing, or flox/flox. All mice were maintained on a pure 129-Sv genetic background except for the inducible deletion Osteocalcin model (mix background: 25% C57/BL6 and 75% 129sv). For inducible gene deletion mice, tamoxifen was prepared in corn oil and injected intraperitoneally (IP) (1 mg/20 g of body weight) over one week. For osteocalcin delivery to pregnant mice, IP injections (240 ng/day) were performed as soon as a plug was present daily until delivery (E0.5-E18.5). For osteocalcin or leptin infusion in adult Osteocalcin^−/− or ob/ob mice, pumps (Alzet micro-osmotic pump, Model 1002) delivering osteocalcin (300 ng/hr), leptin (50 ng/hr), or vehicle were surgically installed subcutaneously in the backs of 3-month old mice. For the postnatal rescue of cognitive functions in Osteocalcin^−/− mice, osteocalcin (10 ng/hour) or vehicle were delivered intrasubventricularly (icy) as previously described (Ducy et al., 2000, Cell 100:197-207). Leptin and osteocalcin content in sera and tissues were determined by ELISA.
Cresyl violet staining to visualize brain morphology was carried out by incubating 20 μm cryosections defatted with 1:1 chloroform:ethanol in cresyl violet acetate (1 g/L) overnight. The stain was differentiated using ethanol and xylene and mounted using DPX mounting medium for histology (Sigma).
To assess apoptosis in WT and Osteocalcin^−/− brains, 20 μm cryostat sections were processed using the APOPTAG® Fluorescein Direct In Situ Apoptosis Detection Kit (Millipore) according to manufacturer's protocol. Images were obtained using Leica DM 4000B, and Image J was used to quantify cell number and intensity of staining.
For western blotting, frozen hippocampi from E18.5 embryos were lysed and homogenized in 250 μl tissue lysis buffer (25 mM Tris HCl 7.5; 100 mM NaF; 10 mM Na4P2O7; 10 mmM EDTA; 1% NP 40). Samples were pooled together in threes by genotype to reduce variability. Proteins were transferred to nitrocellulose membranes and blocked with TBST-5% milk prior to overnight incubation with primary antibody in TBST-5% BSA. HRP-coupled secondary antibodies and ECL were used to visualize the signal.
To further evaluate the importance of maternal osteocalcin for the acquisition of spatial learning and memory in adult offspring, pregnant Osteocalcin^−/− mothers from E0.5 to E18.5 were treated with injections, once a day, of osteocalcin (240 ng/day). Osteocalcin was never injected in these females or their pups after delivery. […] Likewise, the number of apoptotic cells was reduced and the number of NeuN positive cells was increased compared to Osteocalcin^−/− embryos originating from Osteocalcin^−/− mothers that were not injected (FIG. 7I-J).

[2] = Acute stereotactic injection into the hippocampus, pCREB and PKA immunofluorescence; settings: 10 ng into hippocampus, 16 h post injection
Procedure: (§1) FIG. 10. Osteocalcin administration results in CREB phosphorylation. (A) p-CREB immunofluorescence (IF) in the dentate gyms (DG) of WT and Ocn−/− hippocampal region. (B) p-CREB IF in WT brain sections following a dual stereotactic injection of vehicle (PBS) (on the left) or Ocn (10 ng) (on the right) in the hippocampus. The arrows point toward the DG. (C) PKA IF in WT brain sections following a dual stereotactic injection of vehicle (PBS) (on the right) or Ocn (10 ng) (on the left) in the hippocampus.
(§2) The resulting effects on animal behavior of direct recombinant uncarboxylated osteocalcin delivery raise the question of the molecular mechanism of action of osteocalcin in the brain. Given that osteocalcin acts through a G-protein coupled receptor pathway in other tissues, e.g., pancreas and testis, the phosphorylated CREB levels in the hippocampi of Ocn−/− and WT animals was checked. […] The hippocampus is essential for optimal spatial learning and memory in rodents. It was then asked whether the acute stereotactic injection of 10 ng of recombinant uncarboxylated osteocalcin directly into the hippocampus of WT animals would affect pCREB levels. At 16 h post injection, pCREB staining was increased in the hemisphere injected with osteocalcin versus the one injected with PBS in the same animal (FIG. 10B).

[3] = tested on: CREB phosphorylation in the hippocampus; assay: as above; settings: 10 ng into hippocampus of WT animals, 16 h post injection
Procedure: as §1, §2

[4] = 240 ng/day once a day to pregnant Osteocalcin-/- mothers, E0.5 to E18.5

B1: uncarboxylated osteocalcin: Recombinant osteocalcin bacterially produced, cleaved from the GST subunit; completely undercarboxylated at all three sites (protein, listed as Homo sapiens)
chain: MRALTLLALLALAALCIAGQAGAKPSGAESSKGAAFVSKQEGSEVVKRPRRYLYQWLGAPVPYPDPLEPRREVCELNPDCDELADHIGFQEAYRRFYGPV
modifications: uncarboxylated
notes: Recombinant osteocalcin bacterially produced, cleaved from the GST subunit; completely undercarboxylated at all three sites
[1]; [4]
  anxiety or depression phenotypes of adult offspring: did not have any beneficial effect
  deficit in learning and memory of adult offspring: rescued over two third of their deficit
[1]; injection of the pregnant Osteocalcin-/- mothers, 240 ng/day
  cerebral ventricle enlargement in brains of E18.5 Osteocalcin-/- embryos (cresyl violet): rescue of the cerebral ventricle enlargement
[1]; mothers injected during pregnancy
  thickness defect in the CA3 and CA4 regions of the hippocampus in adult Osteocalcin-/- offspring: rescue of the thickness defect
[1]; versus embryos from Osteocalcin-/- mothers not injected
  number of NeuN positive cells: increased
[1]; versus embryos from Osteocalcin-/- mothers not injected, listed as Uncarboxylated osteocalcin
  number of apoptotic cells in E18.5 embryo hippocampus: prevent this neuronal apoptosis
[1]; versus embryos from Osteocalcin-/- mothers not injected, listed as osteocalcin
  number of apoptotic cells in E18.5 embryo hippocampus: reduced
[1]; versus embryos from mothers not injected
  Caspase-3 cleaved protein level in hippocampus of E18.5 embryos (Western blot): decrease
[2]
  PKA staining in the injected hemisphere: widespread and dramatic increase
[3]
  pCREB staining in injected hemisphere versus PBS hemisphere: increased
